Test results: the nanobody polyreactivity screen of Harvey et al. (2022)

Assay: yeast display, Sf9 membrane polyspecificity reagent, FACS + sequencing; frameworks hold sequencing errors
In short: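 Synthetic nanobody libraries on Saccharomyces cerevisiae BJ5465 were galactose-induced for 36–48 hours, stained 1 hour at 4 °C with 10% biotinylated, detergent-solubilized Sf9 membrane reagent and enriched on streptavidin microbeads. FACS then separated cells into low and high (top ~1%) gates by anti-HA (expression) and streptavidin (reagent binding) fluorescence. Genes were colony-PCR amplified, MiSeq 2 × 250 sequenced and CDR-length filtered. A clone's polyreactivity label is that of its gate of origin.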

Sequence | polyreactivity (PSR sort gate)
QVQLVESGGGLVQAGVRLRLSCPASGFIFDWYTMGWYRQAPGKERELVAAITIGGSTDYADSVKGRFTISRDNAKNTVYLQMNSLKPEDTAVYYCNALWYLSGTWYDYWGQGTQVTVSS | low polyreactivity
QVQLVESGGGLVQAGVSLLISCAASGSTFLLNTMGWYIQAPGKERELVAAISSITGDTYYADSVKVRFTISRDNAKNNDYLQMNSLKPEDTAVYYCAARYYLSSQGWTYDYWGQGTQVTVSS | low polyreactivity
QVQLVESGGGLVQAGVSLLLSCAASGSTFGYNAMVCYRQAPGKERELVAAITSSGSTTYYADSVKGRFTISRDNAKNSVYLQLNSLKREDTAVYYCNAPAYYLHYGLYARYDYWGQGTQVTVSS | low polyreactivity
QVQLVESGGGLVQAGVSLRISCAASGGTLNGYAMGWYRQSPGKERELVAVITSGGSTNYADSVKGLFTISRDNAKNTVYLQMNSLKPEDTAVYYCAVRPYELHRLADQPGGDDYWGQGTQVTVSS | low polyreactivity
QVQLVESGGGLVQAGVSLRISCAASVRTFSRYTMGWYRPAPGKERELVAANSGDGASTYYADSVKGRFTISRDNAKYSVYLQMYSLKPEDTAVYYCAARGTRYWDYRYYAYNYWGQGTQVTVSS | high polyreactivity
QVQLVESGGGLVQAGVSLRLSCAASARIFSGYAMGWYRQAPGKEREFVAAITSSGRTKYADSVKGRFTISRDNATNTVYLQMNSLKPEDTAVYYCAAYFGYDWPEYDYWRQGTQVTVSS | high polyreactivity
QVQLVESGGGLVQAGVSLRLSCAASGFIFFPYVMGWYRQAPGKERELVARNTSGGGSTYYADSVKGRFTISRDNAKNTVYIQMNSLKPEDTAGYYCKARRIWYQSTFNYWGQGTQVTVSS | high polyreactivity
QVQLVESGGGLVQAGVSLRLSCAASGFIFWFYAMGWYRQAPGKERELVAAINWSGSYTYYADSVKARFTISRDNAKNTVYLQMNSLKPEDTAVYYCNALFSYGYWRVRYNYWGQGTQVTVSS | high polyreactivity
QVQLVESGGGLVQAGVSLRLSCAASGFTFYPYAMGWYRQAPGKERELVAAISYSGGRTYADSVKGRFTISRDNAKNTVYLQMNSLKPEDTAVYYCAADWTVLVYPYYHEYDYWGQGTQVTVSS | low polyreactivity
QVQLVESGGGLVQAGVSLRLSCAASGIIFAGYVMGWYRQAPGKARELVAAISYRGGSTNYADSVKGRFTISRDNAKNTVYLQMNSLKPEDTAVYYCNRYSRDSRYGYLKFGYDYWGQGTQVTVSS | high polyreactivity
QVQLVESGGGLVQAGVSLRLSCAASGINFTRYAMGWYRQAPGKERELVAAITRNGVSTYYADSVKGRFTISRDIAKNSVYLQMKSLKPEDTAVYYCNTFVLRRYAYCYWGQGTQVTVSS | high polyreactivity
QVQLVESGGGLVQAGVSLRLSCAASGLTLRPYTMGWYRQAPGKERELVAAITGRGGRTHYADSVKGRFTISRDNAKNTVYLQMNSLKPEDTAVYYCAAAARVYVKVGYNYWGQGTQVTVSS | high polyreactivity
QVQLVESGGGLVQAGVSLRLSCAASGNIFRYYVMGWYRQAPGKEREFVAAITSSGGSTYYADSVKGRFTISRDNAKKSFYLQMNSLKPEDSAVYYCAKDYWDPGWAEYDYWGQGTQVTVSS | low polyreactivity
QVQLVESGGGLVQAGVSLRLSCAASGRIFDRNAMGWYRQAPGKERELVARISRTGGSTYYADSVKGRFTISRDNAKNTVYLQMNSLKPEDTAVYYSAASRGGGYDYWGQGTQVTVSS | high polyreactivity
QVQLVESGGGLVQAGVSLRLSCAASGRIFLWYAMGWYRQAPGKERELVAVIRGRGDSTSYADSVKGRFTISRDNAKNTVYLQMNSLKPEDTAVYYCADVGRYDYNDWGQGTQVTVSS | low polyreactivity
QVQLVESGGGLVQAGVSLRLSCAASGRIFRFYAMGWYRQAPGIDRELVATISRSGGSTYYADSVKGRFTISRDNAKNNAYLQMNSLKPEDTAVYYCAAQRLHDGDYWVQGTQVTVSS | high polyreactivity
QVQLVESGGGLVQAGVSLRLSCAASGRIFYHNAMGWYRQAPGKEREFVAAISSRGGTTYYADSVKGRFTISRDNAKKTVYLQMNILKPEDTAVYYCAKQYYSASPAKGDYWGQGTQVTVSS | high polyreactivity
QVQLVESGGGLVQAGVSLRLSCAASGRTFFPNAMGWYRQAPGKERELVAAITHSGGTTYYADSVKGRFTISRDNAKNTVYLQMNSLKPEDTAVYYCARGQPRYYNSAYGYWGLGTQVTVSS | high polyreactivity
QVQLVESGGGLVQAGVSLRLSCAASGRTFPRYAMGWYRQAPGKERELVASISYSGGSTYYADSVKVRFTISRDTAKNTVYLQLNSLKPEDTAVYYCARRGRTSFKYYYWGQGTQVTVSS | high polyreactivity
QVQLVESGGGLVQAGVSLRLSCAASGRTFVTYAMGWSREAPGKEKEFVAAISRTGGSTDYADSVKGRFTISRDNAKNTVYLQMNSLKPEETAVYYCATTVIVSPSGYLKSYYWGQGTQVTVSS | high polyreactivity
QVQLVESGGGLVQAGVSLRLSCAASGSIFGGYAMGWYRQAPGKERELVAVISTRGGRTYYADSVKGRFTISRDNAKYTVYLQMNSLKPEDTAVYYCAANRQYTEYNYWGQGTQVTVSS | high polyreactivity
QVQLVESGGGLVQAGVSLRLSCAASGSIFQSYDMGWYRQEPGKEREVVAAISWSGSTTYYADSVKGRFTLSRDNAKNTVYLQMNSLKPEDTAVYYCAVDSNPPDWWAVIYGFWGQGTQVTVSS | low polyreactivity

Sequence | polyreactivity (PSR sort gate)
QVQLVESGGGLVQAGVSLRLSCAASGSIFTQYAMGWSRQAPGKERELVAAISWSGARTYYADSVKGRFTISRDNAKNTVYIQMNSLKPEDTAVYYWAADIIRPVTVDYWGQGTQVTVSS | high polyreactivity
QVQLVESGGGLVQAGVSLRLSCAASGSILRQYAMGWYRQAPGKEWELVAAITGSGGSTSYADSVKGRFTISRDNAKNTVYLQMNSLKPEDTAVYYCNAYLSSRTRSTYGSLRMDYWGPGTQVTVSS | high polyreactivity
QVQLVESGGGLVQAGVSLRLSCAASGSTFARYAMGWYRQAPGKERELVAVITQSGSSTYYADSVKGRFTISRDNAKNTVYLQMNSLKPEDTAVYYCAAVGIDYTRYGRYWYSYDYWGQGTQVTVSS | high polyreactivity
QVQLVESGGGLVQAGVSLRLSCAASGSTFDTYAMGWYRQAPGKERELVAAISGSGVRTYYADSVKGRFTISRDNAKYTVYLQMNSLKPEDTAVYYCATTGYARRFDYWGQGSQVTVSS | high polyreactivity
QVQLVESGGGLVQAGVSLRLSCAASGSTFGENDMGWYRQAPGKERELVAAITWSGGSTYYADSVKGRFTISRDNAKNTVYLQMNSLNPEVTAVYYCNAEGVGRYSPVSHTFDYWGQGTQVTVSS | low polyreactivity
QVQLVESGGGLVQAGVSLRLSCAASGSTFTYNAMGWYRQAPGKERELVAAISYGGGRTYYADSVKGRFTISRDNAKNTVYLLMNSLKPEDTAVYYCNRYRYSYVEFDYWGQGTQVTVSS | high polyreactivity
QVQLVESGGGLVQAGVSLRLSCAASGTFFIYAMGWYRQAPGKERELVAAITSGDITYYADSVKGRFTISRDNAKNTVYFEMNRLKPEDTAVYYCAAESYAWWDKQFLYRYDYWGQGTQVTVSS | low polyreactivity
QVQLVESGGGLVQAGVSLRLSCADSGFTFDGYAMGWYRQAPGKERELVAAISDSGDSTYYADSVKGRFTISRDNAKNTVYLHMNSLKPEDTAVYYCAAGLGYYWSDYFAYDYWGQGTQVTVSS | low polyreactivity
QVQLVESGGGLVQAGVSLRLTCAASGRIFRRYAMGWYRQAPGKEMEFVAAISYGGGSTYYADSVKGRFTISRDNAKNTVYLQMNSLKPEDTAVYYWNADEVVWGYNYWGQGTQVNVSS | low polyreactivity
QVQLVESGGGLVQAGVSLSLSCAASGITFIIYVMGWYRQAPGKERELVAAISSTGSTYYADSVKGRFTISRDNAKNTVYLQMNSLKPEDTAVYYCAARGRRSSNGFYYWGQGTQVTVSS | high polyreactivity
QVQLVESGGGLVQAGYSLRLSFAASGITFRYYAMGWYRQATGKERELVAGITWSGPSTYYADSVKGRFTISRDNAKNTVYLQMNILKPEYTAVFYCAVDYGLYFTFDYWGQGTQVTVSS | low polyreactivity
QVQLVESGGGLVQALGSLRLSCAASGFIFGYNAMGWYRQAPGQERELVAAISSSGGSTYYADSVKGRFTISRDNAKNTVYLQMNSLKPEDTAVYYGAARPVALRKYDYWGLGTQVTVSS | low polyreactivity
QVQLVESGGGLVQARGSHRISCAASGRTITFNAMGWYRQAPGKQRELVAGIDLSTTSTYYADSVKGRFTISRDNAKNTVYLQMNSLKPEDCAVYYCNAYRNADYDYWGQGTLVTVSS | low polyreactivity
QVQLVESGGGLVQARGSLRLSCAASGAIFVVYTMGWYRQAPGKERELVAAITQNGGSSTYYADSVKGSFTISRDNAKNTFYLQMNSLKPDDTAVYYCNVDSFTTTFDYWGQGTQVTVSS | low polyreactivity
QVQLVESGGGLVQARGSLRLSCAASGFIVSPNVMGWYRQAPGKERELVAVISSTGSTYYADSVKGRFTISRDNAKNTVYLQMNSLKPEDTAVYHCNADYSWYGSSGRPGYDYWGQGTQVTVSS | low polyreactivity
QVQLVESGGGLVQARGSLRLSCAASGFTFQNNAMGWYRQAPGKERELVAAISRSGGSTYYADSVKGRFTISRDNANITVYLQMNSLKPEDTAVYYCAKSSGTLWITKYDYWGQGTQVTVSS | low polyreactivity
QVQLVESGGGLVQARGSLRLSCAASGFTFYFYAMGWYRQATGKETELVAAISRSGSRTYYADSVKGRFTISRDNAKNTVYLQMNSLKPVDTAVYYCARVRPRGLYFVLHYDYWGQGTQVTVSS | high polyreactivity
QVQLVESGGGLVQARGSLRLSCAASGLTFASYAMGWYRQEPGKERELVARISRSGGSTYYADSVKGRFTISRDNAKNTVYFHMNSLKPEDTAVYYCAADYIFRRYPGGGIYDYDYWGQGTQVTVSS | high polyreactivity
QVQLVESGGGLVQARGSLRLSCAASGRIFDRYDMGCYRQAPGKEREFVASITWSDGSTYYADSVKGRFTISRDYAKNTVYLQMNSLKPEDTAVYYCNADYVYYYIPVVYEYDYWGQGTQVTVSS | high polyreactivity
QVQLVESGGGLVQARGSLRLSCAASGRIFNYYAMGWYRQAPGKERELVAAISGSGGRTYYADSVKGRFTISRDNAKNTVYLQMNSLKPEDTAVYYCAADGVDGYDYWGLGTQVTVSS | high polyreactivity
QVQLVESGGGLVQARGSLRLSCAASGRTLYDYAMGWYRPAPGKERELVAAISSSGATTYYADSVKGRFTISRDHAKNTVYLQMNSLKPEDTAVYYCAAESVHQAWSGYYYWGQGTQVTVSS | high polyreactivity
